Experimental data taken from the supplement of paper PMC10567573.

Assay: protein stability index of a GFP-peptide fusion (GPS, HEK-293T) (PSI 1-6); higher = more stable
Conditions: c terminus: native
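Note: lentivirally expressed fusion library, cells FACS-sorted into six equal-sized GFP/DsRed ratio bins, PSI computed from sequencing read fractions per bin weighted by bin number.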

HSLRAVSTDPPHHDHHDEFCLMPF [BEX2 addF]
protein stability index (parent: NP_116010.1): 3.66

EQRNSRWNTVLRAVKAKTHHLEPF [TRPA1 addF]
protein stability index (parent: NP_015628.1): 4.28

CQPISFSGFGAEDDDLGGLGLGPF [POLD2 addF]
protein stability index (parent: NP_006221.1): 3.13

LPALFTDLYSQEITAEEAREALPF [SNF8 addF]
protein stability index (parent: NP_009172.2): 4.24

DGWIRVSSDNVADLHEKYSGSTPF [PSMB5 addF]
protein stability index (parent: NP_002788.1): 3.79
